Test results from patent CN113354737A (GUANGZHOU EXCELMAB BIOMEDICAL TECH CO LTD, dated 2021).
Where two headings read alike, the source gives them in different places.

T1: 重组人GPC3近膜端抗原 (human, UniProt P51654 524-563)
T1 construct: range 524-563
T1 chain (looked up): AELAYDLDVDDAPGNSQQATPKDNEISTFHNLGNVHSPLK


How the values were obtained:
Experiment in all cases: ELISA, coated antigen, HRP anti-human IgG
重组人GPC3近膜端抗原 [1] = target: T1, 重组人GPC3近膜端抗原
重组人GPC3近膜端抗原 [2] = target: T1, 重组人GPC3近膜端抗原
重组人GPC3胞外区抗原 = target: T2, 重组人GPC3胞外区抗原 (human, UniProt P51654 25-559, limits assumed)
T2 construct: extracellular domain
T2 sequence (P51654 25-559 limits assumed): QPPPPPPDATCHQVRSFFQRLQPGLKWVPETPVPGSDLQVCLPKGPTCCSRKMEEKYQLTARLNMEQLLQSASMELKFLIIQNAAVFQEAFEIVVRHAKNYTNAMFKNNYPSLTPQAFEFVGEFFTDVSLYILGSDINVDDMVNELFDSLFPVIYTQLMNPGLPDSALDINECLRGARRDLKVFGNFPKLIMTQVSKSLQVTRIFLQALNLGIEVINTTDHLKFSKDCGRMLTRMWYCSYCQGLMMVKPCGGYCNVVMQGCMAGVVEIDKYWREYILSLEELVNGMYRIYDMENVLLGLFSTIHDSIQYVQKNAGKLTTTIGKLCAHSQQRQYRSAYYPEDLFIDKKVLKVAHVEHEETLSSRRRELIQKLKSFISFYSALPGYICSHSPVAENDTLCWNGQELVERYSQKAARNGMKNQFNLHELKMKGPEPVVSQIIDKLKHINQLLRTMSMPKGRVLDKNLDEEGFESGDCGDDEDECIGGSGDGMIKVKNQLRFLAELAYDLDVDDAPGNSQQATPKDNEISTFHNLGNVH

重组人GPC3近膜端抗原 [3] = target: T1, 重组人GPC3近膜端抗原

| EC50 (重组人GPC3近膜端抗原 [1]) [µg/mL] | EC50 (重组人GPC3近膜端抗原 [2]) [µg/mL] | EC50 (重组人GPC3胞外区抗原) [µg/mL] | EC50 (重组人GPC3近膜端抗原 [3]) [µg/mL] | Molecule |
| --- | --- | --- | --- | --- |
| 0.063 |  |  |  | GC33单抗模拟物 (antibody) |
|  | 0.0951 |  |  | 亲和力成熟变体5A5 (antibody, V domains shown) VH: QVQLQQSGTELVRPGASVKLSCKALGYTFTDYEMHWVKQTPVHGLEWIGAIHPGSGDTAYNQRFKGKATLTADKSSSTAYMEYSSLTSEDSAVYYCTRFYSYAYWGQGTLVTVSA VL: DVVMTQTPLSLPVSLGDQASISCRSSQSLVHSNGNTYLQWYLQKPGQSPKLLIYKVSNRFSGVPDRFSGRGSGTDFTLKISRVEAEDLGVYFCSQSIYVPYTFGGGTKLEIK |
|  | 0.12 |  |  | 亲和力成熟变体5E11 (antibody, V domains shown) VH: QVQLKQSGAELMKPGASVKISCKATGYTFSRYWIEWVKQRPGHGLEWIGEILPGSGSTSYNEKFKGKATFTADTSSNTAYMQLSSLTSEDSAVYYCARSARATYYFDYWGQGTTLTVSS VL: DIQMTQTTSSLSASLGDRVTISCWASQDISNYLNWYQQKPDGTVKLLIYYTSTLHSGVPSRFSGSGSGTDYSLTISNLEQEDIATYFCQQGNALPYTFGGGTKLEIK |
|  | 0.141 | 0.0836 | 0.0279 | 人源GPC3抗体10C7 (antibody, V domains shown, also called 抗人GPC3抗体10C7) VH: QVQLVQSGAEVKKPGASVKLSCKASGYTFTDYEMHWVKQTPGKGLKWIGALDPKTGDTAYAQKFQGRATLTADTSTDTAYMELSSLRSEDSAVYYCTRFYSYTYWGQGTLVTVSS VL: DIVLTQSPLSLTVTPGEPASISCRSSESLVHSNGNTYLSWLQQRPGQPPRLLIYKISNRFSGVPDRFSGSGAGTDFTLKISRVEAEDVGVYYCTQATQFPYTFGQGTKVEIK |
|  | 0.0428 |  |  | 亲和力成熟变体7C6 (antibody, V domains shown) VH: QVQLQQPGAELVKPGASVKLSCKASGYTFTTYYMYWVKQRPGQGLEWIGEINPSNGGTNFNEKFKSKATLTVDKSSSTAYMQLSSLTSEDSAVYYCTTFAYWGQGTLVTVSA VL: DIVMTQSPSSLSASLGGKVTITCKASQDINKYIVWYQHKPGKGPRLLIHYTSILQPGIPSRFSGSGSGRDYSFSISNLEPEDIATYYCLQYDNLWTFGGGTKLEIK |
